Assay results: patent US8440628B2, “Medical compositions containing ghrelin” (Daiichi Sankyo Company, Limited, priority 2002, dated 2013)

How the values were obtained:
Type in all cases: physicochemical
[1] = Stability of human ghrelin in 0.1M HCl and Mcllvain buffer solutions of various pH at 25°C (Example 2, HPLC peak area ratio)
Description: Human ghrelin was dissolved in the following aqueous solutions in the concentration of about 0.15 μmol/mL (0.5 mg/mL).
0.1M HCl aqueous solution (pH: 1.1)
The pH was adjusted with 0.1M citric aqueous acid and 0.2M dibasic sodium phosphate aqueous solution.
Each solution were stored at 25±2° C. for 8, 24, 48 and 72 hours respectively, and the obtained solutions were detected by HPLC analysis in comparison to the solutions before storage. […] No significant changes of pH in solution before storage and after storage were observed.

[2] = Stability of human ghrelin in pH-adjusted purified water at 25°C (Example 7); details: for Peak area ratio to total peak area: 25±2°C
Description: Human ghrelin was dissolved in the purified water with about 0.03 μmol/mL (0.1 mg/mL). […] This solution was divided into quarter, and one portion was kept alone and the pH values of the remaining three portions were adjusted to pH 1.8 (with 17 mM of hydrochloric acid), pH 3.9 (with 0.20 mM of hydrochloric acid) and pH 7.8 (with 0.24 mM of sodium hydroxide) respectively, by adding along with hydrochloric acid or sodium hydroxide aqueous solution.

[3] = Stability of human ghrelin in Britton-Robinson buffer solutions of various pH at 40°C (Example 3); details: pH range of 3 to 6, stored at 40° C. for 1 day (FIG. 3)
Description: Human ghrelin, which is one of the ghrelins, was dissolved in the Britton-Robinson buffer solutions which is adjusted by combining 0.04M phosphoric acid-acetic acid-boric acid aqueous solution and 0.2M sodium hydrate aqueous solution in appropriate ratio, having pH of 2.1, 3.1, 4.0, 5.0, 6.0, 7.0 and 7.9 to obtain an aqueous solution containing human ghrelin in the concentration of about 0.15 μmol/mL (0.5 mg/mL). The obtained solution was filled in brownish glass ampoules and the ampoules were sealed with fire. For the calculation of kinetic constant, the certain degrees of degradation products have to be occurred in the aqueous solution of the ghrelins, and therefore, the ampoules were stored at 40±1° C., which was severe conditions for storage. The concentration (residual ratio) of human ghrelin was conducted by HPLC with time. At the same time, the pH of the solution was measured and it was confirmed that there was no significant changes of pH in solution.
The kinetic constants in each pH solution were calculated from the sequential change of the residual ratio, and the results were shown in FIG. 2.

Question: Which “Production of the degradation product in human ghrelin solution” value (“Production of the degradation product” for short) ([1]; Mcllvain buffer, pH range of 3.0 to 5.0, 25±2°C, up to 72 hours) does the source give for “desacylated human ghrelin (GSSFLSPEHQRVQQRKESKKPPAKLQPR; Ghrelin-28 desacyl; UniProt Q9UBU3 24-51, looked up) [Desacyl compound, degradation product obtained from the hydrolytic cleavage of octanoyl group of human ghrelin]” here?
Answer: The value was “inhibited”.

Question: And the “Peak area ratio to total peak area” value ([1]; human ghrelin 0.5 mg/mL in 0.1M HCl aqueous solution, pH 1, 25±2°C, 8 hr. after)?
Answer: The value was 4.88%.

Question: What about the “Peak area ratio to total peak area” value ([1]; human ghrelin 0.5 mg/mL in 0.1M HCl aqueous solution, pH 1, 25±2°C, 8 hr. after, listed as desacyl compound) of the same substance?
Answer: Its value is “more than 3%”.

Question: And the “Peak area ratio to total peak area” value ([1]; human ghrelin 0.5 mg/mL in 0.1M HCl aqueous solution, pH 1, 25±2°C, 24 hr. after)?
Answer: The value was 13.31%.

Question: And the “Peak area ratio to total peak area” value ([1]; human ghrelin 0.5 mg/mL in 0.1M HCl aqueous solution, pH 1, 25±2°C, 48 hr. after)?
Answer: The value was 24.63%.

Question: And the “Peak area ratio to total peak area” value ([1]; human ghrelin 0.5 mg/mL in 0.1M HCl aqueous solution, pH 1, 25±2°C, 72 hr. after)?
Answer: The value was 34.17%.

Question: And the “Peak area ratio to total peak area” value ([1]; human ghrelin 0.5 mg/mL in 0.1M HCl aqueous solution, pH 1, 25±2°C, before storage)?
Answer: The value was 0.27%.

Question: And the “Peak area ratio to total peak area” value ([1]; human ghrelin 0.5 mg/mL in Mcllvain buffer, pH 2, 25±2°C, 8 hr. after)?
Answer: Its value is 0.34%.

Question: What about the “Peak area ratio to total peak area” value ([1]; human ghrelin 0.5 mg/mL in Mcllvain buffer, pH 2, 25±2°C, 24 hr. after) of the same substance?
Answer: Its value is 0.89%.

Question: What about the “Peak area ratio to total peak area” value ([1]; human ghrelin 0.5 mg/mL in Mcllvain buffer, pH 2, 25±2°C, 48 hr. after) of the same substance?
Answer: Its value is 1.76%.

Question: And the “Peak area ratio to total peak area” value ([1]; human ghrelin 0.5 mg/mL in Mcllvain buffer, pH 2, 25±2°C, 48 hr. after, listed as desacyl compound)?
Answer: Its value is “more than 1%”.

Question: And the “Peak area ratio to total peak area” value ([1]; human ghrelin 0.5 mg/mL in Mcllvain buffer, pH 2, 25±2°C, 72 hr. after)?
Answer: Its value is 2.59%.

Question: And the “Peak area ratio to total peak area” value ([1]; human ghrelin 0.5 mg/mL in Mcllvain buffer, pH 2, 25±2°C, before storage)?
Answer: The value was 0.10%.

Question: What about the “Peak area ratio to total peak area” value ([1]; human ghrelin 0.5 mg/mL in Mcllvain buffer, pH 3, 25±2°C, 8 hr. after) of the same substance?
Answer: The value was 0.20%.

Question: What about the “Peak area ratio to total peak area” value ([1]; human ghrelin 0.5 mg/mL in Mcllvain buffer, pH 3, 25±2°C, 24 hr. after) of the same substance?
Answer: The value was 0.38%.

Question: What about the “Peak area ratio to total peak area” value ([1]; human ghrelin 0.5 mg/mL in Mcllvain buffer, pH 3, 25±2°C, 48 hr. after) of the same substance?
Answer: Its value is 0.67%.

Question: What about the “Peak area ratio to total peak area” value ([1]; human ghrelin 0.5 mg/mL in Mcllvain buffer, pH 3, 25±2°C, 72 hr. after) of the same substance?
Answer: The value was 0.98%.

Question: What about the “Peak area ratio to total peak area” value ([1]; human ghrelin 0.5 mg/mL in Mcllvain buffer, pH 3, 25±2°C, before storage) of the same substance?
Answer: Its value is 0.10%.

Question: And the “Peak area ratio to total peak area” value ([1]; human ghrelin 0.5 mg/mL in Mcllvain buffer, pH 4, 25±2°C, 8 hr. after)?
Answer: The value was 0.12%.

Question: And the “Peak area ratio to total peak area” value ([1]; human ghrelin 0.5 mg/mL in Mcllvain buffer, pH 4, 25±2°C, 24 hr. after)?
Answer: The value was 0.21%.

Question: And the “Peak area ratio to total peak area” value ([1]; human ghrelin 0.5 mg/mL in Mcllvain buffer, pH 4, 25±2°C, 48 hr. after)?
Answer: Its value is 0.37%.

Question: What about the “Peak area ratio to total peak area” value ([1]; human ghrelin 0.5 mg/mL in Mcllvain buffer, pH 4, 25±2°C, 72 hr. after) of the same substance?
Answer: Its value is 0.51%.

Question: What about the “Peak area ratio to total peak area” value ([1]; human ghrelin 0.5 mg/mL in Mcllvain buffer, pH 4, 25±2°C, before storage) of the same substance?
Answer: Its value is 0.09%.

Question: And the “Peak area ratio to total peak area” value ([1]; human ghrelin 0.5 mg/mL in Mcllvain buffer, pH 5, 25±2°C, 8 hr. after)?
Answer: Its value is 0.14%.

Question: And the “Peak area ratio to total peak area” value ([1]; human ghrelin 0.5 mg/mL in Mcllvain buffer, pH 5, 25±2°C, 24 hr. after)?
Answer: The value was 0.24%.

Question: And the “Peak area ratio to total peak area” value ([1]; human ghrelin 0.5 mg/mL in Mcllvain buffer, pH 5, 25±2°C, 48 hr. after)?
Answer: The value was 0.45%.

Question: What about the “Peak area ratio to total peak area” value ([1]; human ghrelin 0.5 mg/mL in Mcllvain buffer, pH 5, 25±2°C, 72 hr. after) of the same substance?
Answer: The value was 0.61%.

Question: And the “Peak area ratio to total peak area” value ([1]; human ghrelin 0.5 mg/mL in Mcllvain buffer, pH 5, 25±2°C, before storage)?
Answer: Its value is 0.10%.

Question: And the “Peak area ratio to total peak area” value ([1]; human ghrelin 0.5 mg/mL in Mcllvain buffer, pH 6, 25±2°C, 8 hr. after)?
Answer: Its value is 0.28%.

Question: And the “Peak area ratio to total peak area” value ([1]; human ghrelin 0.5 mg/mL in Mcllvain buffer, pH 6, 25±2°C, 24 hr. after)?
Answer: The value was 0.70%.

Question: And the “Peak area ratio to total peak area” value ([1]; human ghrelin 0.5 mg/mL in Mcllvain buffer, pH 6, 25±2°C, 48 hr. after)?
Answer: The value was 1.33%.

Question: What about the “Peak area ratio to total peak area” value ([1]; human ghrelin 0.5 mg/mL in Mcllvain buffer, pH 6, 25±2°C, 48 hr. after, listed as desacyl compound) of the same substance?
Answer: Its value is “more than 1%”.

Question: And the “Peak area ratio to total peak area” value ([1]; human ghrelin 0.5 mg/mL in Mcllvain buffer, pH 6, 25±2°C, 72 hr. after)?
Answer: The value was 1.97%.

Question: What about the “Peak area ratio to total peak area” value ([1]; human ghrelin 0.5 mg/mL in Mcllvain buffer, pH 6, 25±2°C, before storage) of the same substance?
Answer: The value was 0.10%.

Question: What about the “Peak area ratio to total peak area” value ([1]; human ghrelin 0.5 mg/mL in Mcllvain buffer, pH 7, 25±2°C, 8 hr. after) of the same substance?
Answer: Its value is 0.92%.

Question: What about the “Peak area ratio to total peak area” value ([1]; human ghrelin 0.5 mg/mL in Mcllvain buffer, pH 7, 25±2°C, 24 hr. after) of the same substance?
Answer: The value was 2.70%.

Question: And the “Peak area ratio to total peak area” value ([1]; human ghrelin 0.5 mg/mL in Mcllvain buffer, pH 7, 25±2°C, 24 hr. after, listed as desacyl compound)?
Answer: The value was “more than 1%”.

Question: What about the “Peak area ratio to total peak area” value ([1]; human ghrelin 0.5 mg/mL in Mcllvain buffer, pH 7, 25±2°C, 48 hr. after) of the same substance?
Answer: The value was 5.22%.

Question: What about the “Peak area ratio to total peak area” value ([1]; human ghrelin 0.5 mg/mL in Mcllvain buffer, pH 7, 25±2°C, 72 hr. after) of the same substance?
Answer: The value was 7.67%.

Question: What about the “Peak area ratio to total peak area” value ([1]; human ghrelin 0.5 mg/mL in Mcllvain buffer, pH 7, 25±2°C, before storage) of the same substance?
Answer: The value was 0.16%.

Question: What about the “Peak area ratio to total peak area” value ([1]; human ghrelin 0.5 mg/mL in Mcllvain buffer, pH 8, 25±2°C, 8 hr. after) of the same substance?
Answer: The value was 3.92%.

Question: And the “Peak area ratio to total peak area” value ([1]; human ghrelin 0.5 mg/mL in Mcllvain buffer, pH 8, 25±2°C, 8 hr. after, listed as desacyl compound)?
Answer: Its value is “more than 3%”.

Question: What about the “Peak area ratio to total peak area” value ([1]; human ghrelin 0.5 mg/mL in Mcllvain buffer, pH 8, 25±2°C, 24 hr. after) of the same substance?
Answer: Its value is 10.57%.

Question: And the “Peak area ratio to total peak area” value ([1]; human ghrelin 0.5 mg/mL in Mcllvain buffer, pH 8, 25±2°C, 48 hr. after)?
Answer: Its value is 19.54%.

Question: And the “Peak area ratio to total peak area” value ([1]; human ghrelin 0.5 mg/mL in Mcllvain buffer, pH 8, 25±2°C, 72 hr. after)?
Answer: The value was 27.26%.

Question: What about the “Peak area ratio to total peak area” value ([1]; human ghrelin 0.5 mg/mL in Mcllvain buffer, pH 8, 25±2°C, before storage) of the same substance?
Answer: Its value is 0.47%.

Question: And the “Production of the degradation product” value ([2]; aqueous solution of pH 3.9 and 4.7, 25±2°C, up to 3 days)?
Answer: Its value is “inhibited”.

Question: What about the “Peak area ratio to total peak area” value ([2]; human ghrelin 0.1 mg/mL in purified water adjusted to pH 1.8 with hydrochloric acid, 1 day after) of the same substance?
Answer: Its value is 1.46%.

Question: What about the “Peak area ratio to total peak area” value ([2]; human ghrelin 0.1 mg/mL in purified water adjusted to pH 1.8 with hydrochloric acid, before storage) of the same substance?
Answer: The value was 0.12%.

Question: What about the “Peak area ratio to total peak area” value ([2]; human ghrelin 0.1 mg/mL in purified water adjusted to pH 3.9 with hydrochloric acid, 1 day after) of the same substance?
Answer: Its value is 0.09%.

Question: What about the “Peak area ratio to total peak area” value ([2]; human ghrelin 0.1 mg/mL in purified water adjusted to pH 3.9 with hydrochloric acid, 3 days after) of the same substance?
Answer: The value was 0.14%.

Question: And the “Peak area ratio to total peak area” value ([2]; human ghrelin 0.1 mg/mL in purified water adjusted to pH 3.9 with hydrochloric acid, before storage)?
Answer: The value was 0.07%.

Question: What about the “Peak area ratio to total peak area” value ([2]; human ghrelin 0.1 mg/mL in purified water adjusted to pH 7.8 with sodium hydroxide, 1 day after) of the same substance?
Answer: Its value is 3.65%.

Question: What about the “Peak area ratio to total peak area” value ([2]; human ghrelin 0.1 mg/mL in purified water adjusted to pH 7.8 with sodium hydroxide, 3 days after) of the same substance?
Answer: Its value is 9.84%.

Question: What about the “Peak area ratio to total peak area” value ([2]; human ghrelin 0.1 mg/mL in purified water adjusted to pH 7.8 with sodium hydroxide, before storage) of the same substance?
Answer: Its value is 0.33%.

Question: And the “Peak area ratio to total peak area” value ([2]; human ghrelin 0.1 mg/mL in purified water, pH 4.7 (not adjusted), 1 day after)?
Answer: Its value is 0.15%.

Question: And the “Peak area ratio to total peak area” value ([2]; human ghrelin 0.1 mg/mL in purified water, pH 4.7 (not adjusted), 3 days after)?
Answer: Its value is 0.28%.

Question: And the “Peak area ratio to total peak area” value ([2]; human ghrelin 0.1 mg/mL in purified water, pH 4.7 (not adjusted), before storage)?
Answer: The value was 0.06%.

Question: And the “Production of the degradation product” value [3]?
Answer: Its value is “inhibited”.
